By Kd is commonly meant the constant that tells how readily two partners part at equilibrium.

The target in series [1] is T1, Redβ K36A K36A (bacteriophage λ) (UniProt P03698).
T1 sequence: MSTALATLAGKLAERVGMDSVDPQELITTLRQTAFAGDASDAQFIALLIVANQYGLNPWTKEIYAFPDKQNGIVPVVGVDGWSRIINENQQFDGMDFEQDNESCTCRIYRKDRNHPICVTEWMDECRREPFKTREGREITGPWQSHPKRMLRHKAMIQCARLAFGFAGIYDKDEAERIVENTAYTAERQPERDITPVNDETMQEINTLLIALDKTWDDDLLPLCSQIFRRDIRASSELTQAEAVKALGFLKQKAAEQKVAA
As to the kind of experiment: fluorescence anisotropy. The note with it: Anisotropy: 50 mM Tris-HCl pH 7.5, 1 mM DTT, 0.1 mg/mL BSA, 10 nM FAM48, 23 °C (Kd per monomer), gel assay: 10 µM Redβ, 50 µM nt of each oligo, PBS, 37 °C. For orientation: In fluorescence polarisation assays a small probe gives low polarisation when free and higher when bound to something large.

Series [2] deals with T2, Redβ K245A K245A (bacteriophage λ) (UniProt P03698).
T2 sequence: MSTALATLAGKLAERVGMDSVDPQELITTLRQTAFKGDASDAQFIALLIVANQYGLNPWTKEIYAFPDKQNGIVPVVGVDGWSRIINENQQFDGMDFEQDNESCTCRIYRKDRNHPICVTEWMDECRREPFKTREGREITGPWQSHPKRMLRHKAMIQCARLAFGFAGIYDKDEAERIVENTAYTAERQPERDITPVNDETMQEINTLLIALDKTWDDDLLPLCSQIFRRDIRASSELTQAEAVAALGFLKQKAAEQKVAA
As to the kind of experiment: fluorescence anisotropy. To be noted: Anisotropy: 50 mM Tris-HCl pH 7.5, 1 mM DTT, 0.1 mg/mL BSA, 10 nM FAM48, 23 °C (Kd per monomer), gel assay: 10 µM Redβ, 50 µM nt of each oligo, PBS, 37 °C.

Series [3] deals with T3, Redβ K172A K172A (bacteriophage λ) (UniProt P03698).
T3 sequence: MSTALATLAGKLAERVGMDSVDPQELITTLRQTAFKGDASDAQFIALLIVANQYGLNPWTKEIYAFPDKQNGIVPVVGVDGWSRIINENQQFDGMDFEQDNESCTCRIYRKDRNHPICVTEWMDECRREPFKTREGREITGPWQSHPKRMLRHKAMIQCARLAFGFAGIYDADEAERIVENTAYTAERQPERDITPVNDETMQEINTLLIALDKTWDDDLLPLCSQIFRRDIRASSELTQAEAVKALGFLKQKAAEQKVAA
As to the kind of experiment: fluorescence anisotropy. To be noted: Anisotropy: 50 mM Tris-HCl pH 7.5, 1 mM DTT, 0.1 mg/mL BSA, 10 nM FAM48, 23 °C (Kd per monomer), gel assay: 10 µM Redβ, 50 µM nt of each oligo, PBS, 37 °C.

The target of series [4] is T4, Redβ K111A K111A (bacteriophage λ) (UniProt P03698).
T4 sequence: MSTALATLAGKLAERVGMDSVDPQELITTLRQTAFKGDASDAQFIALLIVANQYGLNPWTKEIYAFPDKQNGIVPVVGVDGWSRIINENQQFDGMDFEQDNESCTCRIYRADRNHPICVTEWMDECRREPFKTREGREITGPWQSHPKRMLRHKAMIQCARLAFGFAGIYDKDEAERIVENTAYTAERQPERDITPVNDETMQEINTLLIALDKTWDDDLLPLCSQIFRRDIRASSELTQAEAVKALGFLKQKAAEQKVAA
As to the kind of experiment: fluorescence anisotropy. To be noted: Anisotropy: 50 mM Tris-HCl pH 7.5, 1 mM DTT, 0.1 mg/mL BSA, 10 nM FAM48, 23 °C (Kd per monomer), gel assay: 10 µM Redβ, 50 µM nt of each oligo, PBS, 37 °C.

The target in series [5] is T5, Redβ K69A K69A (bacteriophage λ) (UniProt P03698).
T5 sequence: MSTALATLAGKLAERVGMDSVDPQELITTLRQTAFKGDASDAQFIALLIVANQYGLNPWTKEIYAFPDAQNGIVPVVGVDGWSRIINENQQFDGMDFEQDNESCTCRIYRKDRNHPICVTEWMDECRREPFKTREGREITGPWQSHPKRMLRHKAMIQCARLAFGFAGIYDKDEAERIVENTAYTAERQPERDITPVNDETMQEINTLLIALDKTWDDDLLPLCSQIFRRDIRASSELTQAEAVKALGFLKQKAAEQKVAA
As to the kind of experiment: fluorescence anisotropy. The note with it: Anisotropy: 50 mM Tris-HCl pH 7.5, 1 mM DTT, 0.1 mg/mL BSA, 10 nM FAM48, 23 °C (Kd per monomer), gel assay: 10 µM Redβ, 50 µM nt of each oligo, PBS, 37 °C.

The target in series [6] is T6, Redβ WT (bacteriophage λ, UniProt P03698 1-261).
T6 sequence: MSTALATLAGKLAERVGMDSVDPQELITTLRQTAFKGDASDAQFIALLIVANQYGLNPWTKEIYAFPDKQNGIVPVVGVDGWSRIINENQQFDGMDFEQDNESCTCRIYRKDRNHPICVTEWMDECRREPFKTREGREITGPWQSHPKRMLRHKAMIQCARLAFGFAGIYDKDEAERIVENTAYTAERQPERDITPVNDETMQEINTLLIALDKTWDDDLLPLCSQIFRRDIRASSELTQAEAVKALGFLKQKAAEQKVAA
As to the kind of experiment: fluorescence anisotropy. To be noted: Anisotropy: 50 mM Tris-HCl pH 7.5, 1 mM DTT, 0.1 mg/mL BSA, 10 nM FAM48, 23 °C (Kd per monomer), gel assay: 10 µM Redβ, 50 µM nt of each oligo, PBS, 37 °C.

Series [7] addresses T7, Redβ K148A (bacteriophage λ, UniProt P03698 1-261, K148A).
T7 sequence: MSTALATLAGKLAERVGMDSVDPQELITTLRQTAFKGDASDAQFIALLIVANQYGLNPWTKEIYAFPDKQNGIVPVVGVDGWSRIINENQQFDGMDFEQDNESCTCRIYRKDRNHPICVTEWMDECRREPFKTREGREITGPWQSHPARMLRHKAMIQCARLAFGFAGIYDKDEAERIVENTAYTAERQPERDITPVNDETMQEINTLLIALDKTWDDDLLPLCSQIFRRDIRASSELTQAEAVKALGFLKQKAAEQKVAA
As to the kind of experiment: EMSA; strands added sequentially; Anisotropy: 50 mM Tris-HCl pH 7.5, 1 mM DTT, 0.1 mg/mL BSA, 10 nM FAM48, 23 °C (Kd per monomer); gel assay: 10 µM Redβ, 50 µM nt of each oligo, PBS, 37 °C, 1% agarose at 22 °C. To be noted: protein: recombinant; tags: 6xHis removed by thrombin; residual N-terminal GSH; label: 5'-Cy3 and 5'-Cy5; complementary 50-mers; annealed by protein.

For series [8], the target named is T8, Redβ K245A (bacteriophage λ, UniProt P03698 1-261, K245A).
T8 sequence: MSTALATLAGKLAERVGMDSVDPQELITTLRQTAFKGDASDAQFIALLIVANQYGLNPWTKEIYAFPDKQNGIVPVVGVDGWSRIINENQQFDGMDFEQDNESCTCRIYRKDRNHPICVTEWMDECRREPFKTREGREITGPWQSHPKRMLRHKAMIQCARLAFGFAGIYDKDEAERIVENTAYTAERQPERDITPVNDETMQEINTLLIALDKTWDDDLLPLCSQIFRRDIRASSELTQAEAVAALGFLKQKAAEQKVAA
The series is described as above. To be noted: protein: recombinant; tags: 6xHis removed by thrombin; residual N-terminal GSH; label: 5'-Cy3 and 5'-Cy5; complementary 50-mers; annealed by protein.

The target of series [9] is T9, Redβ K251A (bacteriophage λ, UniProt P03698 1-261, K251A).
T9 sequence: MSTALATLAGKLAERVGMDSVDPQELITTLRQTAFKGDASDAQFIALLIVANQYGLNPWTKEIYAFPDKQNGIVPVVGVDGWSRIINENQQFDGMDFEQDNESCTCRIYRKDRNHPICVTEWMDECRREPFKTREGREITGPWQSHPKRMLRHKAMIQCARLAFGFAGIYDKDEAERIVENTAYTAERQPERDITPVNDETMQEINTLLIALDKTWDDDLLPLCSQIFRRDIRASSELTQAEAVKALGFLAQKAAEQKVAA
The series is described as above. The note with it: protein: recombinant; tags: 6xHis removed by thrombin; residual N-terminal GSH; label: 5'-Cy3 and 5'-Cy5; complementary 50-mers; annealed by protein.

FAM48 48-mer ssDNA: the Kd in series [1] was 530 nM; in [2], 160 nM; in series [3], 2600 nM; in [4], 2400 nM; in [5] it was 410 nM; in series [6] it was 110 nM.

B1: annealed duplex of Cy3 and Cy5 50-mers, strands added sequentially (dsDNA)
DNA 1: GCGGATGGCTTAGAGCAGAATCGCCCTGCATAGCTCGATTTTTGCGGATG
DNA 2: CCATCCGCAAAAATCGAGCTATGCAGGGCGATTCTGCTCTAAGCCATCCG
B1: the binding result in series [7] is listed as “no binding”; in series [8], “binds”; in series [9], “binds”.

These data come from publication PMC8303780, “Mutational Analysis of Redβ Single Strand Annealing Protein: Roles of the 14 Lysine Residues in DNA Binding and Recombination In Vivo”.
